Experiments:
Experiment in all cases: MST
[1] = target: AciKC lyase domain (residues 1–219)
[2] = target: CurKC lyase domain (residues 1–217) (Thermomonospora curvata DSM43183)
[3] = target: CurKC kinase domain (residues 218–489) (Thermomonospora curvata DSM43183)
[4] = target: CurKC leader recognition domain (LRD, residues 222–309), GB1 tag removed (Thermomonospora curvata DSM43183)
[5] = target: CurKC lyase-kinase didomain (residues 1–489) (Thermomonospora curvata DSM43183)
[6] = target: CurKC, class III lanthipeptide synthetase from the biosynthesis of curvopeptin (full-length) (Thermomonospora curvata DSM43183)

Row | Kd [1] | Kd [2] | Kd [3] | Kd [4] | Kd [5] | Kd [6] | Substance
1 | 43.9 µM | 14.8 µM |  |  |  |  | AciKC kinase domain (residues 220–495) (domain or fragment)
2 |  |  | 801 µM | 1200 µM | 84 µM | 5.5 µM | CurA leader peptide
3 | 209 µM | 170 µM |  |  |  |  | CurKC kinase domain (residues 218–489) (domain or fragment)
4 |  | 139 µM |  |  |  |  | CurKC leader recognition domain (LRD, residues 222–309), GB1 tag removed (domain or fragment)

— paper PMC9828337
